Reference: the RNAGym collection of RNA variant scans (doi:10.1093/nar/gkz1192)

B1: CPEB3 Ribozyme (parent)
chain: UAACAGGGGGCCACAGCAGAAGCGUUCACGUCGCAGCCCCUGUCAGAUUCUGGUGAAUCUGCGAAUUCUGCUGUAUAUCUC

Variants of: B1
Test: self-cleavage, relative activity (ratio to wild type); higher = more cleavage; in vitro, sequencing
In short: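 Libraries of CPEB3 self-cleaving ribozyme mutants came from rounds of error-prone PCR and carried barcodes, which DNA sequencing matched to variants. In vitro transcription used T7 RNA polymerase at 37°C for 5 hours, with a further 15 min in DNase I before EDTA stopped the reaction; the ribozymes cleaved during both steps. The RNA was reverse transcribed with template switching and sequenced on Illumina. Relative activity is the cleaved/total read fraction of a variant divided by that of the unmutated ribozyme, averaged over three batches with at least 5 reads.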

Variant | self-cleavage
UAACAGGGGGCCACAGCACAAGCGUUCACGUCGCAGCCCCCGUCAGAUUCUGGUGAAUCUGCGAAUUCUGCUGUAUAUCUC | 0.18
UAACAGGGGGCCACAGCACAAGCGUUCACGUCGCAGCCCCAGUCAGAUUCUGGUGAAUCUGCGAAUUCUGCUGUAUAUCUC | 0.44
UAACAGGGGGCCACAGCACAAGCGUUCACGUCGCAGCCCCGGUCAGAUUCUGGUGAAUCUGCGAAUUCUGCUGUAUAUCUC | 0.32
UAACAGGGGGCCACAGCAUAAGCGUUCACGUCGCUGCCCCUGUCAGAUUCUGGUGAAUCUGCGAAUUCUGCUGUAUAUCUC | 0.15
UAACAGGGGGCCACAGCAUAAGCGUUCACGUCGCGGCCCCUGUCAGAUUCUGGUGAAUCUGCGAAUUCUGCUGUAUAUCUC | 0.63
UAACAGGGGGCCACAGCACAAGCGCUCACGUCGCAGCCCCUGUCAGAUUCUGGUGAAUCUGCGAAUUCUGCUGUAUAUCUC | 0.06
UAACAGGGGGCCACAGCACAAGCGUUCACGUCGCCGCCCCUGUCAGAUUCUGGUGAAUCUGCGAAUUCUGCUGUAUAUCUC | 0.2
UAACAGGGGGCCACAGCACAAGCGUUCACGUCGCUGCCCCUGUCAGAUUCUGGUGAAUCUGCGAAUUCUGCUGUAUAUCUC | 0.22
UAACAGGGGGCCACAGCAUAAGCGUUCACGUCGCAGCCCCUGUCAGGUUCUGGUGAAUCUGCGAAUUCUGCUGUAUAUCUC | 0.22
UAACAGGGGGCCACAGCAUAAGCGUUCACGUCGCAGCCCCUGUCAGUUUCUGGUGAAUCUGCGAAUUCUGCUGUAUAUCUC | 0.5
UAACAGGGGGCCACAGCACAAGCGUUCACGUCGCAGCCCCUGUCAGAUUCUGGUGUAUCUGCGAAUUCUGCUGUAUAUCUC | 0.19
UAACAGGGGGCCACAGCACAAGCGUUCACGUCGCAGCCCCUGUCAGAUUCUGGUGGAUCUGCGAAUUCUGCUGUAUAUCUC | 0.07
UAACAGGGGGCCACAGCACAAGCGUUCACGUCGCAGCCCCUGUCAGAUUCUGGUGAUUCUGCGAAUUCUGCUGUAUAUCUC | 0.13
UAACAGGGGGCCACAGCACAAGCGUUCACGUCGCAGCCCCUGUCAGAUUCUGGUGAGUCUGCGAAUUCUGCUGUAUAUCUC | 0.23
UAACAGGGGGCCACAGCAUAAGCGUUCACGUCGCAGCCCCUAUCAGAUUCUGGUGAAUCUGCGAAUUCUGCUGUAUAUCUC | 0.18
UAACAGGGGGCCACAGCACAAGCGUUCACGUCGCAGCCCCUGUCAGACUCUGGUGAAUCUGCGAAUUCUGCUGUAUAUCUC | 0.35
UAACAGGGGGCCACAGCACAAGCGUUCACGUCGCAGCCCCUGUCAGAAUCUGGUGAAUCUGCGAAUUCUGCUGUAUAUCUC | 0.18

Variant | self-cleavage
UAACAGGGGGCCACAGCACAAGCGUUCACGUCGCAGUCCCUGUCAGAUUCUGGUGAAUCUGCGAAUUCUGCUGUAUAUCUC | 0.16
UAACAGGGGGCCACAGCACAAGCGUUCUCGUCGCAGCCCCUGUCAGAUUCUGGUGAAUCUGCGAAUUCUGCUGUAUAUCUC | 0.07
UAACAGGGGGCCACAGCAUAAGCGUUCACGUCGCAGCCCCUGUCAGAUUCUGGUGAAUCUGCGAAUUCUGCUGUAUAUCUC | 0.27
UAACAGGGGGCCACAGCAUAAGCGUUCACGUCGCAGCCCCUGUCAGAUUUUGGUGAAUCUGCGAAUUCUGCUGUAUAUCUC | 0.38
UAACAGGGGGCCACAGCAUAAGCGUUCACGUCGCAGCCCCUGUCAGAUUAUGGUGAAUCUGCGAAUUCUGCUGUAUAUCUC | 0.15
UAACAGGGGGCCACAGCAUAAGCGUUCACGUCGCAGCCCCUGUCAGAUUCUGGUGAGUCUGCGAAUUCUGCUGUAUAUCUC | 0.48
UAACAGGGGGCCACAGCAUAAGCGUUCACGUCGCAGCCCCUGUCAGAUUCUGGUGACUCUGCGAAUUCUGCUGUAUAUCUC | 0.19
UAACAGGGGGCCACAGCACAAGCGUUCACGUCGCAGCCCUUGUCAGAUUCUGGUGAAUCUGCGAAUUCUGCUGUAUAUCUC | 0.29
UAACAGGGGGCCACAGCACAAGCGUUCACGUCGCAGCCCCUGUCAGAUUCUGGUGAAUCUGCGAAUUCUGCUGCAUAUCUC | 0.19
UAACAGGGGGCCACAGCAUAAGCGUUCACGUCGCAGCCCAUGUCAGAUUCUGGUGAAUCUGCGAAUUCUGCUGUAUAUCUC | 0.21
UAACAGGGGGCCACAGCAUAAGCGUUCACGUGGCAGCCCCUGUCAGAUUCUGGUGAAUCUGCGAAUUCUGCUGUAUAUCUC | 0.19
UAACAGGGGGCCACAGCACAAGCGUUCACGUCGCAGCCCCUGUCAGAUUCUGGUGAAUCUGCGAAUUCUGCUGUAUGUCUC | 0.24
UAACAGGGGGCCACAGCACAAGCGUUCACGUCGCAGCCCCUGUCAGAUUCUUGUGAAUCUGCGAAUUCUGCUGUAUAUCUC | 0.35
UAACAGGGGGCCACAGCAUAAGCGUUCACGUCGCAGUCCCUGUCAGAUUCUGGUGAAUCUGCGAAUUCUGCUGUAUAUCUC | 0.38
UAACAGGGGGCCACAGCAUAAGCGUUCACGUCGCAGACCCUGUCAGAUUCUGGUGAAUCUGCGAAUUCUGCUGUAUAUCUC | 0.31
UAACAGGGGGCCACAGCACAAGCGUCCACGUCGCAGCCCCUGUCAGAUUCUGGUGAAUCUGCGAAUUCUGCUGUAUAUCUC | 0.27
UAACAGGGGGCCACAGCAUAAGCGUUCACGUCGCAGCCCCUGUCAGAUUCUGGUGAAUCUGCGAAUUCUGCUGUAUUUCUC | 0.12
